Source: PMC4655608 (The Biochemical journal, 2015)
One block for each binder: values may come before it.

Molecular target: catalytic p110γ subunit of class IB phosphoinositide 3-kinase (PI3Kγ) (human, UniProt P48736 1-1102)
Assay: AUC

Sequence of catalytic p110γ subunit of class IB phosphoinositide 3-kinase (PI3Kγ) (P48736 whole entry): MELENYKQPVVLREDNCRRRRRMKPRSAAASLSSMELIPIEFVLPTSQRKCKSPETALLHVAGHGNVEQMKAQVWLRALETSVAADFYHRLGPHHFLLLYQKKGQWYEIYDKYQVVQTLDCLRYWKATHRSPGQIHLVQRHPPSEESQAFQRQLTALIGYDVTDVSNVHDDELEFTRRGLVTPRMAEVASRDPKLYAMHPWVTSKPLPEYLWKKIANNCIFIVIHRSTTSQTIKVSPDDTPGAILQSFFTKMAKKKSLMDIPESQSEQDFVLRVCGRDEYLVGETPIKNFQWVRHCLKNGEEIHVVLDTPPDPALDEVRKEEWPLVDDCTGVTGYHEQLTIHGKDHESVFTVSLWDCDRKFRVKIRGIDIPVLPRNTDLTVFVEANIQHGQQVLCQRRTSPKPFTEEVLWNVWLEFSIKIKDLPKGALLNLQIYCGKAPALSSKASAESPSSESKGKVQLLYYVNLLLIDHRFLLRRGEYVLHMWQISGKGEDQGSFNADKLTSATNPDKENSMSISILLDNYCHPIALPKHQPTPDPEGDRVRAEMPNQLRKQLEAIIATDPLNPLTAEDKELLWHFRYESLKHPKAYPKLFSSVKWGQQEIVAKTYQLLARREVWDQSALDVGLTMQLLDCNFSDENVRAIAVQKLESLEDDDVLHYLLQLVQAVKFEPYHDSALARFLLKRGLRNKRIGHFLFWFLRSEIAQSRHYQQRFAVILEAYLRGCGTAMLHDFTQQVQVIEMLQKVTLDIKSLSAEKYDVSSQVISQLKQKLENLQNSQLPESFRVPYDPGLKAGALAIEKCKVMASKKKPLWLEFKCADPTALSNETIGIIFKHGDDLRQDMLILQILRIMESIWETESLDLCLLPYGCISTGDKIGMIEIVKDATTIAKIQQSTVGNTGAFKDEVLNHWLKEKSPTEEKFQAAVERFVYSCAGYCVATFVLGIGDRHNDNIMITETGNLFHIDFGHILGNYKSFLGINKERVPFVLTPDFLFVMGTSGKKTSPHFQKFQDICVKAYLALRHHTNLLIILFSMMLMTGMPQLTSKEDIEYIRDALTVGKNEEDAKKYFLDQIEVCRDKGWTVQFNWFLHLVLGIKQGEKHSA

Kd: ≤ 200 nM
B1: p87 non-catalytic subunit of PI3Kγ (natural protein, UniProt Q5UE93 1-754, looked up)
chain: MESSDVELDLQRSVQAVLRELSTQAPALQSNQGMWRWSLHKKVERDPGKSPVLVRILLRELEKAESQDLRHVIIPLLHTVMYVLTKATGITEELYQRIYAFCTRLLTLPTPYCTVALDCAIRLKTEMAVPGTLYQRMVIAEQNLTNELYPYQERVFLFVDPELVSASVCSALLLEIEAAQAQQTPETCMRHVVSHALQAALGEACHAGALHRKLQASPRRTLEHYFHAVVAALEQMASEASPSREGHVERLEEIYCSLLGPAAGRCGGDLVQERPPSIPLPSPYITFHLWTGEEQLWKELVLFLRPRSQLRLSADLEVLDLQGLRPDRELARVSVLSTDSGIERDLPTGADELPAPGSPEMERAGLQRKGGIKKRAWPLDFLMPGSWDGPPGLHRRTGRPSGDGEMLPGVSRLHTARVLVLGDDRMLGRLAQAYHRLRKRETQKFCLTPRLSLQLYYIPVLAPEKPAASRQPELGELATFLGRVDPWYQSNVNTLCPAIHKLAEMPPSLDTSRTVDPFILDVITYYIRMGTQPIYFQIYTVKIFFSDLSQDPTEDIFLIELKVKIQDSKFPKDGFSPRRRGVAEGPGAELSLCYQKALLSHRPREVTVSLRATGLILKAIPASDTEVSGSSHCPLPAAPVTDHTCLNVNVTEVVKSSNLAGKSFSTVTNTFRTNNIQIQSRDQRLLTLSLDKDDQRTFRDVVRFEVAPCPEPCSGAQKSKAPWLNLHGQQEVEAIKAKPKPLLMPINTFSGIVQ

Kd: ≤ 100 nM
B2: p101 non-catalytic subunit of PI3Kγ (natural protein, UniProt Q8WYR1 1-880, looked up)
chain: MQPGATTCTEDRIQHALERCLHGLSLSRRSTSWSAGLCLNCWSLQELVSRDPGHFLILLEQILQKTREVQEKGTYDLLTPLALLFYSTVLCTPHFPPDSDLLLKAASTYHRFLTWPVPYCSICQELLTFIDAELKAPGISYQRLVRAEQGLPIRSHRSSTVTVLLLNPVEVQAEFLAVANKLSTPGHSPHSAYTTLLLHAFQATFGAHCDVPGLHCRLQAKTLAELEDIFTETAEAQELASGIGDAAEARRWLRTKLQAVGEKAGFPGVLDTAKPGKLHTIPIPVARCYTYSWSQDSFDILQEILLKEQELLQPGILGDDEEEEEEEEEVEEDLETDGHCAERDSLLSTSSLASHDSTLSLASSQASGPALSRHLLTSFVSGLSDGMDSGYVEDSEESSSEWPWRRGSQERRGHRRPGQKFIRIYKLFKSTSQLVLRRDSRSLEGSSDTALPLRRAGSLCSPLDEPVSPPSRAQRSRSLPQPKLGTQLPSWLLAPASRPQRRRPFLSGDEDPKASTLRVVVFGSDRISGKVARAYSNLRRLENNRPLLTRFFKLQFFYVPVKRSHGTSPGACPPPRSQTPSPPTDSPRHASPGELGTTPWEESTNDISHYLGMLDPWYERNVLGLMHLPPEVLCQQSLKAEAQALEGSPTQLPILADMLLYYCRFAARPVLLQVYQTELTFITGEKTTEIFIHSLELGHSAATRAIKASGPGSKRLGIDGDREAVPLTLQIIYSKGAISGRSRWSNLEKVCTSVNLNKACRKQEELDSSMEALTLNLTEVVKRQNSKSKKGFNQISTSQIKVDKVQIIGSNSCPFAVCLDQDERKILQSVVRCEVSPCYKPEKSDLSSPPQTPPDLPAQAAPDLCSLLCLPIMTFSGALP
